These results are taken from patent publication US11306156.

As usually defined, the Kd is the free concentration of one partner at which half of the binding sites on the other are occupied at equilibrium, for simple one-to-one binding.

Test [1] concerns the target Cetuximab light chain Q38R_Q124R_Q160K_T178R. The test can be described thus: SMCA: H1, H2, L1, L2 co-expressed in CHO-3E7, protein A purified, LC-MS; competing light chain m18.
For test [2] the target is unchanged. Description: SMCA: H1, H2, L1, L2 co-expressed in CHO-3E7, protein A purified, LC-MS; competing light chain m10; *** estimated change against a similar wild-type construct.
Test [3] has the same target. Description: SMCA: H1, H2, L1, L2 co-expressed in CHO-3E7, protein A purified, LC-MS; competing light chain m18; against wild-type bispecific.
The target in test [4] is tissue factor (TF) antigen (UniProt P13726). Description: SPR (ProteOn), Fab captured via anti-penta-His, TF injected, 1:1 fit; estimated (*) from a Fab differing only in L chain tag.
Test [5] has the same target. The test can be described thus: SPR (ProteOn), Fab captured via anti-penta-His, TF injected, 1:1 fit; reference wild-type D3H44 Fab.
Test [6] has the same target. The test can be described thus: SPR (ProteOn), Fab captured via anti-penta-His, TF injected, 1:1 fit; reference wild-type D3H44 Fab; estimated (*) from a Fab differing only in L chain tag.
For test [7] the target is unchanged. Description: SPR (ProteOn), Fab captured via anti-penta-His, TF injected, 1:1 fit.
The target is the same in test [8]. The test can be described thus: SPR, ProteOn XPR36; His-tagged Fab captured on anti-penta-His, TF injected; 1:1 fit; batch C (+); Set # read as 9787.
For test [9] the target is unchanged. Description: SPR as for KD; reference: wild-type D3H44 Fab; batch C (+).
The target is the same in test [10]. The test can be described thus: SPR, ProteOn XPR36; His-tagged Fab captured on anti-penta-His, TF injected; 1:1 fit; batch C (+). Background: SPR reads the build-up and loss of mass on a sensor chip optically.
For test [11] the target is unchanged. Description: SPR as for KD; reference: wild-type D3H44 Fab; batch C (+); Set # read as 9787.
Test [12] concerns the target D3H44 light chain Q38R_Q124R_Q160K_T178R. The test can be described thus: SMCA: H1, H2, L1, L2 co-expressed in CHO-3E7, protein A purified, LC-MS; competing light chain m18.
Test [13] shares this target. Description: SMCA: H1, H2, L1, L2 co-expressed in CHO-3E7, protein A purified, LC-MS; competing light chain m18; against wild-type bispecific.
Test [14] shares this target. The test can be described thus: SMCA: H1, H2, L1, L2 co-expressed in CHO-3E7, protein A purified, LC-MS; competing light chain m16.
The target is the same in test [15]. Description: SMCA: H1, H2, L1, L2 co-expressed in CHO-3E7, protein A purified, LC-MS; competing light chain m16; against wild-type bispecific.
Test [16] shares this target. Description: SMCA: 2 heavy + 2 light chains co-expressed, protein A, LC-MS; competing light chain m20.
Test [17] has as its target Trastuzumab light chain Q38R_Q124R_Q160K_T178R. Description: SMCA: H1, H2, L1, L2 co-expressed in CHO-3E7, protein A purified, LC-MS; competing light chain m16.
Test [18] concerns the target Trastuzumab light chain Q38E_Q124E_Q160E_T180E. The test can be described thus: SMCA: H1, H2, L1, L2 co-expressed in CHO-3E7, protein A purified, LC-MS; competing light chain m12.
Test [19] shares this target. The test can be described thus: SMCA: H1, H2, L1, L2 co-expressed in CHO-3E7, protein A purified, LC-MS; competing light chain m14.
Test [20] has the same target. Description: SMCA: H1, H2, L1, L2 co-expressed in CHO-3E7, protein A purified, LC-MS; competing light chain m14; against wild-type bispecific.
Test [21] shares this target. Description: SMCA: H1, H2, L1, L2 co-expressed in CHO-3E7, protein A purified, LC-MS; competing light chain m12; against wild-type bispecific.

“Cetuximab heavy chain Q39E_L143E_K145T_Q179E” showed a % H2L2 Pairing (over all H2 species) in test [1] of 52.3%. Further, the Change in % H2L2 Pairing (over all H2 species) with respect to wild type in test [2] is 1.6%; in test [3], 22.7%.

On to “D3H44 Fab heterodimer (H1L1) of LCCA Sets # 9683, 9684: H1 L143E_K145T_Q179E, L1 T178R”, for which the dissociation constant (Kd) in [4] and in test [7] was 0.3 nM each time. In addition, the change in median KD compared to wild type, -(log(KD design)-log(KD wt)) in [5] and in test [6] was -0.28 each time.

In the case of “D3H44 Fab heterodimer, H1L1 of LCCA Sets # 9794, 9796, 9797, 9792, 9789 and 9787 (H1 Q179K; L1 Q124E_T180E)”, the Kd in [8] and in [10] was 0.11 nM in each case. The change in median KD compared to wild type, -(log(KD design)-log(KD wt)) in test [9] and in test [11] was 0.16 throughout.

As to “D3H44 heavy chain Q39E_L143E_K145T_Q179E (from UniProt P0DOX5 2-448)”, the % H1L1 Pairing (over all H1 species) in test [12] was found to be 86.6%; in [14], 100%; in [16], 100%. The values for the Change in % H1L1 Pairing (over all H1 species) with respect to wild type in [13] and in test [15] were 46% and 38.1%, respectively.

As to “Trastuzumab heavy chain Q39E_L143E_K145T_Q179E (from UniProt P0DOX5 2-448)”, the % H1L1 Pairing (over all H1 species) in test [17] came out at 100%.

In test [18], “Trastuzumab heavy chain Q39R_H172R_Q179K (from UniProt P0DOX5 2-448)” registered a % H1L1 Pairing (over all H1 species) of 100%. In test [19], this substance showed a % H2L2 Pairing (over all H2 species) of 100%. Besides, in test [20], the Change in % H2L2 Pairing (over all H2 species) with respect to wild type amounted to 7%. In test [21], this substance yielded a Change in % H1L1 Pairing (over all H1 species) with respect to wild type of 6%.
